# B1: TCN-529 (5297_H01) (antibody, V domains shown)
# VH: QITLRESGPTLVKPTQTLTLTCTFSGFSLSTNGVNVGWIRQPPGKALEWLALIYWDDDKRYSPSLKRRLTITKDTSKNQVVLTLTNMDPVDTATYYCAHRPDFYGDFEYWGPGTLVTVSS
# VL: QSALTQPASVSGSPGQSITISCTGSSSDIGGYNYVSWYQQHPGKAPKLMIYDVNNRPSGVSNRFSGSKSGNTASLTISGLQTDDEADYYCGSYTGSPHYVFGTGTKVTVL
# B2: TCN-538 (3206_O17) (antibody, V domains shown)
# VH: QITLKESGPTLVKPTQTLTLTCVFSGFSLSITGVRVGWIRQPPGKALEWLALISWDDEKHYSPSLQSRLTITKDTSKNQVVLTMTNLDPVDTATYYCARSTDRGHVLRYFGWMLPGDAFDVWGQGTMVTVSS
# VL: DIVMTQSPDFLPVSLGERATINCKSSQRVLYSSNNKNYLAWYQLKPGQPPKLIIYWASTRESGVPDRFSGSGSGTEFTLTISSLQAEDVAVYYCQQYYSRPYTFGQGTKLEIK
# B3: TCN-537 (3194_D21) (antibody, V domains shown)
# VH: QVQLQQWGSGLLKPSETLSLTCAVYGGSFRDDYWTWIRQPPGKGLEWIGEINHSGRTNYNPSLKSRVTISVDTSLKQFSLKVISVTAADTAVYYCARGTSHVSRYFDWLPPTNWFDPWGQGTQVTVSS
# VL: DIVLTQSPGTLSLSPGERATLSCRASQSVSSSYLAWYQQKPGQAPRLVMYGAATRATGIPDRFSGSGSGPDFTLTISRLEPEDFAMYYCQQYGNSPITFGQGTRLEIK
# B4: TCN-526 (5084_C17) (antibody, V domains shown)
# VH: EVLMVESGGGLVQPGGSVRLSCVASGFSFSSHWMTWVRQAPGKGLEWVANIEDDGGDKYYVDSVKGRFIISRDNAKNSVYLQMNSLRAEDTAVYFCARGSGSSDRSDYDPHYYYYLDVWGKGATVTVSS
# VL: DIQLTQSPSSLSASVGDRVTITCRASQSISRYLNWYQQKPGKAPKLLLFAASTLLDGVPSRFSGSGSGTDFTLTISSLQPEDFATYYCQRNHSPSWTFGQGTRVEIK
# B5: TCN-522 (3212_I12) (antibody, V domains shown)
# VH: QVQLQQWGAGLLKPSETLSLTCTVSGGSLTDYSWNWIRQPPGKGLEWIGDTLHNGYTNYNPSLRGRVSISIDTSKNQVSLRLTSVTAADTALYYCARGSGGYGGFDYFGKLRTWDFWGQGTLVTVSS
# VL: DIQLTQSPSSLSASVGDRVTITCRASQGIRNDLGWYQQKPGNAPKRLIFGASSLQSGVPSRFSGSGSGTEFTLTISSLQPEDFATYYCLQHNSYPYTFGQGTKLEIK
# B6: TCN-546 (5089_L08) (antibody, V domains shown)
# VH: QVQLQQWGAGLLKPSETLSLTCGVYGGSLSDYYWSWIRQPPGKGLEWIGEINHSGGTNYNPSLKRRVTISVDTSKKQFSLKMNSVTAADTAVYYCARGTDPDTEVYCRAGNCAAFDFWGQGTLVTVSS
# VL: EIVLTQSPGTLSLSPGERATLSCRASHFVIGRAVAWYQQKPGQAPRLLIYGASSRATGIPDRFSGSGSGTDFTLTISRLETEDFAVFYCQHYGSSPRYAFGQGTKLEIK
# B7: TCN-539 (5056_A08) (antibody, V domains shown)
# VH: QVQLVESGGGVVQPGRSLRLSCAASEITFITYAMHWVRQAPGKGLEWVALISDDGSNKFYADSVKGRFTISRDNSKNTLYLQMNSLRAEDTAAYYCAREGVYFDSGTYRGYFDYWGQETLVTVSS
# VL: EIVLTQSPATLSLSPGERATLSCRASQSVSSYLAWYQQKPGQAPRLLIYDASNRATGIPARFSGSGSGTDFTLTISSLEPEDFAVYYCQQRSHWPPITFGQGTRLEIK
# B8: TCN-545 (5082_I15) (antibody, V domains shown)
# VH: QVQLQQWGAGLLKPSETLSLSCAVFGGSFSDYYWTWIRQPPGKGLEWIGEIKHSGRTNYNPSLESRVTISVDTSKNQFSLKLSSVTAADTAIYYCARGTDPDTEGYCRSGSCSAFDFWGQGTLVTVSS
# VL: EIVLTQSPGTLSLSPGERATLSCRASHFVNYRSLAWYQQTPGQVPRLLIYGASTRATGIPDRFSGSGSGTDFTLTISRLEPEDFAVYFCQQYGGSPRYTFGQGTRLEIK
# B9: TCN-533 (5256_A17) (antibody, V domains shown)
# VH: QVQLVQSGADVKKPGSSVTVSCKASGGSFSNYGINWVRQAPGQGLEWMGGIIPLINAPNYAPKFQGRVTITADMFSNIVSLQLTSLRTDDTAVYYCARRKMTTAIDYWGQGTLVTVSS
# VL: QPVLSQPPSASASLGASVTLTCTLSSGFDNYQVAWYQQRPGKGPRFVMRVGNGGNVASKGDGIPDRFSVSGSGLNRYLTIKNIQEDDESDYYCGADHGSGNNFVSPYVFGGGTKLTVL
# B10: TCN-543 (5081_G23) (antibody, V domains shown)
# VH: QVHLVQSGAEVRKPGDSVKVSCKTSGYTFSTYPVAWVRQVPGQGLEWMGWISTYNGNTNFAQNFQGRVTLTTDTTTNTAYMEVRSLKFDDTAVYYCARVEGSYRDFWNNQNRFDPWGQGTLVTVSS
# VL: SYVLTQPPSVSVAPGQTARISCGGSNIGGKSVHWYQQKPGQAPVLVVYDDSGRPSGIPERFSGSNSGDTATLTISRVEAGDEADYFCQVWDNFGGVFGTGTKVTVL
# B11: TCN-534 (5249_B02) (antibody, V domains shown)
# VH: QVQLVQSGAEVKKPGSSVKVSCRESGGTFNGYTITWVRQAPGQGLEWMGGIIPMMGTVNYAQKLQGRVTITTDYFTKTAYMDLNNLRSEDTAMYYCVKIRYTGQQLLWGQGTLVTVSS
# VL: DIQMTQSPSTLSASIGDRVTITCRASQSIASWLAWYQQKPGKAPKLLIYEAVNLESGVPSRFSGSGSGTDFTLTISSLQPDDFATYFCQHYGTISQTFGGGTKVEIK
# B12: TCN-544 (5082_A19) (antibody, V domains shown)
# VH: QVQLQESGPGLVKPSETLSLTCTVSRGSIGHYFWSWIRQPPGKGLEWIGYISYSGSTKYNPSLRSRVTISVDTSKNQFSLNLNSVTATDTALYYCAREDYDILTGAGPGMEVWGQGTTVTVSS
# VL: QSMLTQPPSASGTPGQRVTISCSGSSSNIGSNTVNWFKHLPGTAPKLLIYRNDLRPSGVPDRFSGSKSGTSASLAISGLQSEDEADYYCATWDDSLNGFYVFGTGTKVTVL
# B13: TCN-532 (5262_H18) (antibody, V domains shown)
# VH: QVQLQESGPGLVKPSETLSLTCTVSGGSVSSETYYWSWIRQPPGKGLEWIGYIYYIGNTDYRPSLKSRVTISLDTSKNQFSLKLSSVTAADTAVYYCARGAYYDSSGYPAFYIWGQGTMVTVSS
# VL: QSVLTQPPSVSGAPGQRVTISCTGSSSNIGSDYDVHWYKQLPGTAPKLLIFGNSNRPSGVPDRFSGSKSGTSASLAITGLQAEDEADYYCQSYDSSLSGFHVFGSGTKVTVL
# B14: TCN-531 (5091_H13) (antibody, V domains shown)
# VH: EVQLVESGGDLVQPGRSLKLSCTGSGFTFGDYGVTWVRQAPGKGLEWVGFIRTRPWGGTADTAASVKGRFTISRDDSKSLAYLQMNSLKTEDTAVYYCCRDAPPNVEVASMTNWYFDLWGRGTLVTVSS
# VL: DIQLTQSPSSLSASVGDRVTITCRASQGILNCLAWYQQKPGKVPNLLMYAASTLQSGVPSRFSGSGFGTDFTLTISSLQPEDVATYYCQTYGGVSTFGGGTKVEIR
# B15: TCN-528 (5087_P17) (antibody, V domains shown)
# VH: QVQLVQSGSEVKKPGASVKVSCKASGYTFTNYDINWIRQAPGQGLEWMGWINPNSGTTGSAQRFQGRVTITVDTSITTVYMELSSLRSDDTAIYYCARGRELLRLQHFLTDSQSERRDCFDPWGQGTLVTVSS
# VL: DIQMTQSPSSLSASVGDRVTITCRANQDIGIYLNWYQQNPGKVPKLLLHGASSLQGGVPSRFSASGSGTDFTLTIHSLQPEDLATYYCQQSRRLPYTFGQGTRVELK
# B16: TCN-535 (5246_P19) (antibody, V domains shown)
# VH: QVQLVQSGSEVKKPGTSVKVSCTASGSVFTNYGISWVRQAPGQGLEWMGGIIPLFGAAKYAQKFQGRVTITADESTKTVYMELSRLTSKDTAIYFCAKAPRVYEYYFDQWGQGTPVTVSS
# VL: EIVLTQSPGTLSLSPGERATLSCRASQSVSSSQLAWYQQKPGQAPRLIIYGASTRATGIPDRFSGSGSGTDFTLTIGRLEPEDFAVFFCQQYSTSPPTFGQGTKVDFK
# B17: TCN-542 (5079_A16) (antibody, V domains shown)
# VH: QVQLQESGPGLVKPSQTLSLTCTVSGGSISSGNYYWNWVRQHPGKGLEWIGYIYYRGSTFYNPSLKSRVTISIDTSKNQFSLRLSSVTAADTAVYYCAKDTRSSLDNYQYGMDVWGQGTTVTVSS
# VL: QTVVTQEPSLTVSPGGTVTLTCASSTGAVTSSYFPNWFQQKPGQAPRPLIYSTTIRHSWTPARFSGSLLGGKAALTLSGVQPEDEADYYCLLYSGGDPVAFGGGTKLTVL
# B18: TCN-540 (5060_F05) (antibody, V domains shown)
# VH: QVQLVQSGGGVVQPGRSLRLSCAASGFTFSSYAMHWVRQAPGKGLEWVAIISYDGNDQYYTDSVKGRFTISRDSSKVYLQMHRLRPEDTAVYYCAKEFETSGYFHGSFDYWGQGILVTVSS
# VL: QSALTQPASVSGSPGQSITISCTGTSSDVGGYNYVSWYQQHPGKAPKLLIYEVTNWPSGVSNRFSGSKSGNTASLTISGLQAEDEADYYCSSYAGSSTWVFGGGTRVTVL
# B19: TCN-527 (5086_C06) (antibody, V domains shown)
# VH: QVQLQESGPGLVKPSETLSLNCAVSGGSISNYYWSWIRQPPGKGLEWIGYISYNGRPKYNPSLTSRVTISVDTSKDQFSLELRSVTAADTALYYCARETRFGELLSPYDAFEIWGQGTMVTVSS
# VL: DIQMTQSPSSLSASVGDRVTMTCRASQNIRSYLNWYQQRPGTAPKLLIYAASTLHSGVPSRFSGGGSGTDFTLTINNLQPEDFASYYCQQSYDNPQTFGQGTKVEIK
# B20: TCN-536 (5095_N01) (antibody, V domains shown)
# VH: QVQLQQWGAGLLKPSETLSLTCAVYGGSFSVSGYYWSWIRQPPGRGLEWIGEISHGGSTNYNPSLKSRVTISVDTTKNQFSLRLSSVTAADTAVYYCARGTDPDTEVYCRVGNCAAFDYWGQGSLVTVSS
# VL: EIILAQSPGTLSLSPGERATLSCRASQFVSTRSLAWYQQRPGQAPRLLIYGASSRATGIPDRFSGSGSGTDFTLTISRLEPEDFAVYYCQHYGYSPRYAFGQGSKVEIK
# B21: TCN-530 (5248_H10a) (antibody, V domains shown)
# VH: QVQLVQSGAEVRKPGSSVKVSCKASGGPFMSYAIGWVRQAPGQGLEWMGGINPVFGRPHYAQKFQGRVTIATDDSTKTSYMELSSLTSEDTGMYYCASRYSRSSPGTFESWGQGTLVTVSS
# VL: EIVMTQFPATLSVSPGERVTLSCRASQSVSNNLAWYQQKPGQPPRLLIYDASTRATGVPAKFSGTGSGTEFTLSISSLQSEDFAVYYCQQYHNWPPSYSFGLGTKLEIK
# Target: Hemagglutinin of influenza A/Solomon Islands/3/06 (H1N1) on whole virions (Influenza A virus A/Solomon …)
# Test: cell-based or functional assay
row,Binder,% Neutralization
1,B1,0%
2,B2,35%
3,B3,89%
4,B4,0%
5,B5,33%
6,B6,0%
7,B7,97%
8,B8,98%
9,B9,56%
10,B10,100%
11,B11,86%
12,B12,95%
13,B13,11%
14,B14,65%
15,B15,0%
16,B16,82%
17,B17,98%
18,B18,100%
19,B19,12%
20,B20,75%
21,B21,64%
